Data: patent US20250042990A1 (Eli Lilly, published 2025)

Legend:
human IL-1β [1] = target: T1, human IL-1β (human, UniProt P01584 117-269); assay: MSD-SET (solution equilibrium titration, electrochemiluminescence), 37° C., 72 h equilibrium
T1 construct: also called hu IL-1β; huIL-1β
Method: MSD (Meso Scale Discovery) electrochemiluminescence assay is utilized to measure the affinity of Antibody I, Antibody II, Antibody III, and Canakinumab to human IL-1β. First, the equilibrium mixture of antibodies and human IL-1β is set up; in the mixture the antibody concentrations are kept constant at 1 pM, 10 pM, and 100 pM whereas the ligand is titrated in the concentration ranging from 0.9 nM to 0.00004 nM (2.5 times dilution between concentrations). The equilibrium mixture is set up in sealed non-binding 96-well plate at 37° C. for 72 hours.
MSD Gold Streptavidin plates are used to detect the free antibodies in the equilibrium mixture. The MSD plates are first blocked with blocking buffer (PBS+1% BSA) for 1 hour on a shaker set at 800 rpm and then washed 3 times with washing buffer PBST (PBS+0.05% Tween 20). The plates are coated with biotinylated human IL-1β followed by 3× washing with PBST. The equilibrium mixtures are added to the coated plate, incubated at room temperature with shaking for 2.5 mins and immediately washed 3× with PBST. The goat anti-human Sulfo-TAG antibody is added to the plate and incubated at room temperature for 1 hour with shaking. After three more washes, MSD Read Buffer at 1:2 concentration diluted in MilliQ water is added to the wells. Immediately afterwards, the plates are read using an MSD Sector Imager SI6000 instrument.

human IL-1β [2] = target: T1, human IL-1β; assay: cell-based or functional assay

- Kd (human IL-1β [1]): 13.5 pM
- Avg. IC50, neutralization of human IL-1β (4 pM) in HEK-Blue IL-1β SEAP reporter cells (human IL-1β [2]): 26 pM
B1: Canakinumab (antibody, human IgG4 S228P, kappa, F234A L235A, V domains shown)
VH: QVQLVESGGGVVQPGRSLRLSCAASGFTFSVYGMNWVRQAPGKGLEWVAIIWYDGDNQYYADSVKGRFTISRDNSKNTLYLQMNGLRAEDTAVYYCARDLRTGPFDYWGQGTLVTVSS
VL: EIVLTQSPDFQSVTPKEKVTITCRASQSIGSSLHWYQQKPDQSPKLLIKYASQSFSGVPSRFSGSGSGTDFTLTINSLEAEDAAAYYCHQSSSLPFTFGPGTKVDIKR
notes: Comparator
